Numbered stars: 1 amine (or outer) side, 2 acyl side, 3 side chain; on linkers, the order of the positions; unused ones are H or OH. Bridge positions count the residues as written; N and C are the ends. Side chains are listed from the residue outwards. Ends that are not written are not given here. * marks the point of attachment. C20 diacid = O=C(O)CCCCCCCCCCCCCCCCCCC(=O)*; γGlu = O=C(O)[C@H](CCC(=O)[*:2])N[*:1]
T1: human calcitonin receptor (human, UniProt P30988 25-474)
T1 construct: whole, on cells; Membranes in a scintillation proximity assay (Assay VII); also called hCTR; hCT
T1 sequence (looked up): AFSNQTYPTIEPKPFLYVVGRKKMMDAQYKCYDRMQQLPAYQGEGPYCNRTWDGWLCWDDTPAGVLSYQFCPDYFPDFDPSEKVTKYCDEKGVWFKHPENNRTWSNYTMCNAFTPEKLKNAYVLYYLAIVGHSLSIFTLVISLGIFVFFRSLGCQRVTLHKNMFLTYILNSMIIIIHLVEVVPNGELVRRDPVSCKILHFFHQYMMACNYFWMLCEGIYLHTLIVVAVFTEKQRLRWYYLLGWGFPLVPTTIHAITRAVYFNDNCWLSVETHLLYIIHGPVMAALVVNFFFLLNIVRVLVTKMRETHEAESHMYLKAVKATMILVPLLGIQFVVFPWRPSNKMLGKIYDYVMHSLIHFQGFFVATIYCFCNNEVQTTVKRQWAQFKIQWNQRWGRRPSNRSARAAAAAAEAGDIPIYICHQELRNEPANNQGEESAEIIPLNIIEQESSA

T2: human calcitonin receptor (human, UniProt P30988 25-474)
T2 construct: whole, on cells; also called hCTR; hCT
T2 sequence (looked up): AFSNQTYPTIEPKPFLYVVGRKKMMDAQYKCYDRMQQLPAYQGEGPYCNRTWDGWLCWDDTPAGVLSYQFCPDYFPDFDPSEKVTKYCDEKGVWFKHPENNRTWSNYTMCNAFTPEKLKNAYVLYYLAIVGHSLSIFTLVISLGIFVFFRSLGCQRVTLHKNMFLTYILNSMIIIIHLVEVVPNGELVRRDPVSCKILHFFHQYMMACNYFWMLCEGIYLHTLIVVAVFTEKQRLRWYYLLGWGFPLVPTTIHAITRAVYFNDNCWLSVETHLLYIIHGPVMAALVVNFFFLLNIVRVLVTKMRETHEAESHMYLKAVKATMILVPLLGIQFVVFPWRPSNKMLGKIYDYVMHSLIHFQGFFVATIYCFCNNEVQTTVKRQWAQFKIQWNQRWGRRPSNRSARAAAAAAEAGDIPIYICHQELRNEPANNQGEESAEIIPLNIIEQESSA

T3: human amylin receptor (amylin 3(a) receptor: human calcitonin receptor plus RAMP-3) (human, UniProt P30988 25-474; O60896 24-148)
T3 construct: whole, on cells; the species of RAMP-3 is told only through the name 'human amylin receptor'; also called hAmylin-R; hAmylinR
T3 sequence (looked up) 1: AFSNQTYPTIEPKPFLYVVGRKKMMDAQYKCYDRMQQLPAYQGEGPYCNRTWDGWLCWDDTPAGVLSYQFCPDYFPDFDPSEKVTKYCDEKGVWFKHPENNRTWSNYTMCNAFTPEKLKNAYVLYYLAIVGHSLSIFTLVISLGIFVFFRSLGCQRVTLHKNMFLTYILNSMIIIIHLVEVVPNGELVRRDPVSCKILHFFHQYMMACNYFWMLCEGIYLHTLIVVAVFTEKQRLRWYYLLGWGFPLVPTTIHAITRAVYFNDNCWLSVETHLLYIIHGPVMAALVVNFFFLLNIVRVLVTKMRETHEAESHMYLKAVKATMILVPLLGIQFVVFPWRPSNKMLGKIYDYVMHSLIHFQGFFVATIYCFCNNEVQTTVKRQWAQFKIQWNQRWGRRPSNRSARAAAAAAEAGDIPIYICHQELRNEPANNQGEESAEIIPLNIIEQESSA
T3 sequence (looked up) 2: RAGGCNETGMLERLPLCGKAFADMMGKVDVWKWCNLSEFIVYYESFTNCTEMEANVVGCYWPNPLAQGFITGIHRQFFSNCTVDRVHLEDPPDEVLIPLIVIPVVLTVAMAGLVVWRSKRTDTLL


Assays:
[1] = molecular target: T1, human calcitonin receptor; assay: ratio of IC50 at human calcitonin receptor to IC50 at human amylin receptor (reference), SPA binding assays
Description: The resulting pellet was resuspended, homogenized and centrifuged (20.000 rpm, 15 min) in a buffer containing 20 mM Na-HEPES and 0.1 mM EDTA (pH 7.4, buffer 2). The resulting pellet was resuspended in buffer 2 and protein concentration was measured (BCA protein Assay, Pierce). The homogenate was kept cold during the whole procedure. The membranes were kept at −80° C. until use. The assay was performed in a 384 well Optiplate (PerkinElmer) in a total volume of 40 ul. Membranes were mixed with SPA beads. Final concentration of membranes 35 ng/μL final and SPA beads was 0.05 mg/well. Test-compounds were dissolved in DMSO and further diluted in assay buffer (50 mM Hepes, pH 7.4, 1 mM CaCl2, 5 mM MgCl₂, 0.1% OA and 0.02% Tween20). […] The final mixture was incubated with shaking at 400 rpm for 120 min at 25° C. prior to centrifugation (1500 rpm, 10 min). Samples were analyzed on TopCounter™ (Packard). The IC₅₀ was calculated using (one site binding competition analysis) GraphPad Prism5 as a measure of receptor affinity.
Membranes were prepared in the following way; the cells were rinsed with PBS and incubated with Versene for approximately 5 min before harvesting. The cells were flushed with PBS and the cell-suspension was centrifuged for 5 min at 1000 rpm. Cells were homogenized (Ultrathurrax) in a buffer containing 20 mM Na-HEPES and 10 mM EDTA (pH 7.4) and centrifuged at 20.000 rpm for 15 min. The resulting pellet was resuspended, homogenized and centrifuged (20.000 rpm, 15 min) in a buffer containing 20 mM Na-HEPES and 0.1 mM EDTA (pH 7.4, buffer 2). The resulting pellet was resuspended in buffer 2 and protein concentration was measured (BCA protein Assay, Pierce). The homogenate was kept cold during the whole procedure. The membranes were kept at −80° C. until use. Assay was performed in a 384 well Optiplate (PerkinElmer) in a total volume of 40 ul. Membranes were mixed with SPA beads.

[2] = molecular target: T1, human calcitonin receptor; assay: SPA competition binding, displacement of 125I-calcitonin from membranes with human calcitonin receptor (Assay VII)
Description: Membranes were prepared in the following way; the cells were rinsed with PBS and incubated with Versene for approximately 5 min before harvesting. The cells were flushed with PBS and the cell-suspension was centrifuged for 5 min at 1000 rpm. Cells were homogenized (Ultrathurrax) in a buffer containing 20 mM Na-HEPES and 10 mM EDTA (pH 7.4) and centrifuged at 20.000 rpm for 15 min. The resulting pellet was resuspended, homogenized and centrifuged (20.000 rpm, 15 min) in a buffer containing 20 mM Na-HEPES and 0.1 mM EDTA (pH 7.4, buffer 2). The resulting pellet was resuspended in buffer 2 and protein concentration was measured (BCA protein Assay, Pierce). The homogenate was kept cold during the whole procedure. The membranes were kept at −80° C. until use. Assay was performed in a 384 well Optiplate (PerkinElmer) in a total volume of 40 ul. Membranes were mixed with SPA beads. Final concentration of membranes 35 ng/μL final and Final concentration of SPA beads was 0.05 mg/well. Test-compounds were dissolved in DMSO and further diluted in assay buffer (50 mM Hepes, pH 7.4, 1 mM CaCl2, 5 mM MgCl₂, 0.1% OA and 0.02% Tween20). […] The final mixture was incubated for 120 min with shaking at 400 rpm at 25° C. prior to centrifugation (1500 rpm, 10 min). Samples were analyzed on TopCounter™ (Packard). The […] was calculated using (one site binding competition analysis) GraphPad Prism5 as a measure of receptor affinity.

[3] = molecular target: T2, human calcitonin receptor; assay: SPA competition binding, membranes with human calcitonin receptor, displacement of 125I-calcitonin (Assay VII)
Summary of the method: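 BHK hCTR membranes 35 ng/μL + SPA beads 0.05 mg/well; buffer 50 mM Hepes pH 7.4, 1 mM CaCl2, 5 mM MgCl₂, 0.1% OA, 0.02% Tween20. 120 min, 25° C., shaking. Scintillation count; IC50 by one-site binding competition.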

[4] = molecular target: T2, human calcitonin receptor; assay: ratio of IC50 at hCTR to IC50 at the human amylin receptor (reference)
Summary of the method: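 Scintillation proximity competition binding on cell membranes at 35 ng/μL with SPA beads, in 50 mM Hepes pH 7.4, 1 mM CaCl2, 5 mM MgCl₂, 0.1% OA, 0.02% Tween20. Incubated 120 min at 25° C with shaking. IC₅₀ from one-site competition fit.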

[5] = molecular target: T3, human amylin receptor (amylin 3(a) …); assay: SPA competition binding, membranes with human amylin 3(a) receptor, displacement of 125I-rat amylin (Assay V)
Description: The binding assay was performed using scintillation proximity assay (SPA) beads (RPNQ0001) from PerkinElmer and cell membranes from the Amylin 3(a)/CRE-luc cells (as described in Assay (II)) were used. Membranes were prepared in the following way; the cells were rinsed with PBS and incubated with Versene for approximately 5 min before harvesting. The cells were flushed with PBS and the cell-suspension was centrifuged for 5 min at 1000 rpm. Cells were homogenized (ultrathurrax) in a buffer containing 20 mM Na-HEPES and 10 mM EDTA (pH 7.4) and centrifuged at 20.000 rpm for 15 min. The resulting pellet was resuspended, homogenized and centrifuged (20.000 rpm, 15 min) in a buffer containing 20 mM Na-HEPES and 0.1 mM EDTA (pH 7.4, buffer 2). The resulting pellet was resuspended in buffer 2 and protein concentration was measured (BCA protein Assay, Pierce). The homogenate was kept cold during the whole procedure. The membranes were kept at −80° C. until use. The assay was performed in a 384 well Optiplate (PerkinElmer) in a total volume of 40 ul. Membranes were mixed with SPA beads. Final concentration of membranes 35 ng/μL final and SPA beads was 0.05 mg/well. Test-compounds were dissolved in DMSO and further diluted in assay buffer (50 mM Hepes, pH 7.4, 1 mM CaCl2, 5 mM MgCl₂, 0.1% OA and 0.02% Tween20). […] The final mixture was incubated with shaking at 400 rpm for 120 min at 25° C. prior to centrifugation (1500 rpm, 10 min). Samples were analyzed on TopCounter™ (Packard). The IC₅₀ was calculated using (one site binding competition analysis) GraphPad Prism5 as a measure of receptor affinity.

Row | Ratio hCT/hAmylin binding [1] | IC50 [2] | IC50 [3] | Ratio hCT/hAmylin binding [4] | IC50 [5] | Binder
1 | 280 | 127 nM | – | – | – | K([γGlu-γGlu-C20 diacid])CNTATCATQRLADFLRHSSPNFGAIPSSTNVGPRTY-NH2 (disulfide 2-7 (inferred), also called compound 130)
2 | – | – | 102 nM | 90 | 1.14 nM | KCNTATCATQRLANFLRHSSPNFGAIPSSTNVGSNTY (C20 diacid-gGlu-2xOEG on the alpha amino group of the N-terminal residue; disulfide bridge Cys2-Cys7; C-terminal amide, also called compound 24)
3 | – | – | 73.4 nM | 64.4 | 1.14 nM | KCNTATCATQRLANFLRHSSPNFGAIPSSTNVGSKTY (C20 diacid-gGlu on the alpha amino group of the N-terminal residue; disulfide bridge Cys2-Cys7; C-terminal amide, also called compound 34) [N^α1-[(4S)-4-carboxy-4-(19-carboxynonadecanoylamino)butanoyl]-[Arg17,Pro21,Pro27,Lys35]-h-amylin]

Source: patent US20140087995A1 (published 2014)
